Experimental data from patent US20100081792A1 (published 2010).

Assays:
mouse VEGF = molecular target: T1, mouse VEGF (mouse, UniProt Q00731-2 27-190, limits assumed); assay: receptor binding assay, dAb cross-linked by anti-Myc tag antibody
T1 sequence (looked up): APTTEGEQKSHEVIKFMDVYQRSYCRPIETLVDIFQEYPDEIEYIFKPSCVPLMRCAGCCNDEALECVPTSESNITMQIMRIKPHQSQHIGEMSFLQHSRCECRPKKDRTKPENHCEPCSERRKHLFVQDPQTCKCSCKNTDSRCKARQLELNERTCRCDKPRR

human VEGF = molecular target: T2, human VEGF (human, UniProt P15692-4 27-191); assay: as above
T2 construct: also called VEGF165

IC50 (mouse VEGF): 10 nM
IC50 (human VEGF): 3 nM
B1: TAR15-26 (other)
VH: EVQLLESGGGLVQPGGSLRLSCAASGFTFGAYPMMWVRQAPGKGLEWVSEISPSGSYTYYADSVKGRFTISRDNSKNTLYLQMNSLRAEDTAVYYCAKDPRKFDYWGQGTLVTVSS
notes: VH dAb; carries a Myc tag in the cross-linked assay
